Measurements from the nanobody polyreactivity screen of Harvey et al. (2022).

Assay: yeast display, Sf9 membrane polyspecificity reagent, FACS + sequencing; frameworks hold sequencing errors
Outline: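 A nanobody's polyreactivity label depends on the gate it was sorted from. Yeast display cells were stained with 10% biotinylated, detergent-solubilized Sf9 membrane reagent for 1 hour at 4 °C, enriched on streptavidin microbeads and sorted by FACS. The low and high (top ~1%) gates were set on anti-HA fluorescence for expression and streptavidin fluorescence for reagent binding.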

Row | Sequence | polyreactivity (PSR sort gate)
1 | QVQLVESGGGLVQAGGSLRLSCAASGSTFQWNAMGWYRQAPGKERELVAAISKSGGRTYYADSVKGRFTISRDNAKNTVYLQMNSLKPEDTAVYYCNALGSLDGRYGYWGQGTQVTVSS | high polyreactivity
2 | QVQLVESGGGLVQAGGSLRLSCAASGSIFELNAMGWYRQAPGKERELVAAITSSGSSTYYADSVKGRFTISRDNAKNTVYLQMNSLKPEDTAVYYCFRPHDYWGQGTQVTVSS | low polyreactivity
3 | QVQLVESGGGLVQEGGSLRLSCAASGSILAGYAMGWYRQPPRKERELVDDITSGGDTYYADSVKGRFTISRDNAKNTVYLQMKSLKPEDTAVYYCNAVYEGRYEYAYYYRYDYWGQGTQVTVSS | high polyreactivity
4 | QVHLVESGGGLVQAGGSLRLSSAASGSTFYKNAMGWYRQAPGKERELVAGISRRGGRTYYADSVKGRFTISRDNANNTVYLQMNSLKPEDTAVYYCNTGHEEDEYDYWGQGTQVTVSS | low polyreactivity
5 | QVQLVESGGGLVQAGGSLRLSCAASGFIFRRYALGWYRQAPGKERELVAAISWGGTSTYYADSVKGRFTISRDNAKNTVYLQMNSLKPVDTAGYYCAADRSVRTRGGFDYWGQGTQVTVSS | high polyreactivity
6 | QVQLVESGGGLVQAGGSLRLSCAASGSTFSAYAMGWYRQAPGKERELVATITSDGSTNYADSVKGRFTISRDNAKNTVYLQMNSLKPEDTAVYYCAAKRQYKRSRMYYWGQGTQVTVSS | high polyreactivity
7 | QVQLVESGGGLVQAGGSLRLSCAASAFTFYYYDMGWYRQAPGKERELVAAIDTSDGSTYYADSVKGRFTISRDNAKNTVYLQMNSLKPEDTAVYYCSAEVDWVPFLLVYWGQGTQVTVSS | low polyreactivity
8 | QVQLVESGGGLVQAGGSLRLSCAASGRTITRYTMGWYRQAPGKERELVAAIRYSGGSTYYADSVKGRFTISRDTAKNTIYLQMNSLKPEDTAVYYCAARSYYYGFLYSYDYWGQGTQVTVSS | low polyreactivity
9 | QVQLVESGGGLVQAGGSLRLSCAASGRTFRYYAMGWYRPAPGKERELVAAINWSGGTTYYADSVKGRFTISRDNAKNTVYLQMNSLKPEDTAVYYCAAVYGYPSTSRYDYWGQGTQVTVSS | high polyreactivity
10 | QVQLVESGGGLVQAGGSLRLSCAASGRIFLYYAMGWYRQAPGKERELVAAITSSGGGTYYADSVKGRFTISRDNAKNTVYLQMNSLKPEDTAVYYCAARRRSQWRYYYWGQGTQVTVSS | high polyreactivity
11 | QVQLVESGGGLVQAGGSLRLSCAASGRIFEKYAMGWYRQAPGKERELVAAISYSGGSTYYADSVKGRFTISRDNAKNTVYLQMNSLKPEDTAVYYCARYSRTQAYDYWGQGTQVTVSS | high polyreactivity
12 | QVQLVESGGGLVQAGGSLRLSWAASGSIFRSYAMGWYRQAPGKEREFVAAIPNSSGRTYYADSVKGRFTISRDNAKNTVYLQMNSLKPEDTAVYYCAARLPRTYQGGKLYRLQYSWGQGTQVTVSS | high polyreactivity
13 | QVQLVESGGGLVQAGGSLRLSCSASGRILRQYAMGWSRQAPGKERELVAAITSSGGSTYYADSVKGRFTISRDNAKNTVYLQMNSLKPEDTAVYYCNARLRGAKYDYLGQGTQVTVSS | high polyreactivity
14 | QVQLVESGGGLVQAGGSLRLSCAASGIIFSSYVMGWYRQAPGKERELVAAISSRGVSTYYADSVKGRFTISRDNAKNTVYLQMNSLKPEDTAVYYCAGVGPSYVRYYYWGQGTQVTVSS | high polyreactivity
15 | QVQLVESGGGLVQAGGSLLLSCAASGYTFGFYAMGWYTQAPGKERELVAAISASGGSTYYADSVKGRFTISRDNAKNTVYLQMNSVKPEETAVYYCAAVYSVYYHTWVTTRDYYYWGQGTQVTVSS | high polyreactivity
16 | QVQLVESGGGLVQAGGSLRLSCAASGRTFRNNAMGWYRQAPGKEREFVAVISNTGGSTYYADSVKGRFTISRDNAKNTVYLQMNSLKPEDTAVYYCAVRPRYSQYYYWGQGTQVTVSS | high polyreactivity
17 | QVQLVESGGVLVQAGGSLRLSCAASGLTFKWYAMGWYRQAPGKERELVAAITKSGGTTYADSVKGRFTISRDNAKNTVYLQMNSLKPEDTAVYYCAARYWRLWNTVRYEGDFSDGYWGQGTQVTVSS | high polyreactivity
18 | QVQLVESGGGLVQAGGSLRLSCAASGRIFRGNGMGWYRQAPGKERELVAAINYSGASTYYADSVKGRFTISRDNAKNTVYLQMNSLKPEDTAVYYCARAWFYRGGEGWLESYIVSGDYWGQGTQVTVSS | low polyreactivity
19 | QVQLVESGGGLVQAGGSLRLICAASGSTFNGYVMGWYRKAPGKERELVAAISRSGGSTYYADSVKGRFTNSRDNAKNTVYLQMNSLKPEDTAVYDCAAAPPLAGLGGYYWGQGTQVTVSS | high polyreactivity
20 | QVQLVESGGGLVQAGGSLRLSCAASGGTFYPYAMGWYRQAPGKERELVAAISASDDNTYYADSVKGRFTISRDNAKNTVYLQMNSLKPEDTAVYYCAKRSYFYPYGYWGQGTQVTVSS | high polyreactivity
21 | QVQLVETGGGLVQAGGSLRLSCADYGYILWNAMGWYRQAPGTEMELVPAIRFRGGSTSYADSVKGRFTISRDNAQNTVYLQMKSLKPVYTAVYYCNARWWVIRPYERHDYWGQGTQVTVTS | low polyreactivity
22 | QVQLVESGGGLVQAGGSLRLSCAASGSTLYWYAMGWYRQAPGKERELVASISWSGGSTYYADSVKGRFTISRDNAKITVYLQMNSLKPEDTAVYYCDAVRHYHGTWYDYWGEGTQVTVSS | high polyreactivity

Row | Sequence | polyreactivity (PSR sort gate)
23 | QGQLVESGGGLVQAGGSLRLSCAASGFTFQYYAMGWSRQAPGKERELVAAISWSGGRTYYADSVKGRFTISRDNAKNTESLQMNSLKPEDTAVYYCAASYIVYPARYEDEGDYWGQGTQVTVSS | high polyreactivity
24 | QVQLVESGGGLVQAGGSLRLSCAASGSTFDYYARGWYRQAPGKERELVAGISSSGGRTYYADSVKGRFTISRDNAKNTVYLQMNSLKPEDTAVYYCAARIRVRKHEAFDYWGQGTQVTVSS | low polyreactivity
25 | QVQLVESGGGLVQAGGSLSLSCAASGSTFVVNAMGWYRQAPGKERELVAAITQSGGSTFYADSVKGRFPISRDNAKNTVYLQMNSLKPEDTAVYYWGQGTQVTVSS | low polyreactivity
26 | QVQLVESGGGLVQAGGSLRLSCAASGSILGTYAMGWYRQAPGKERELVAAISSSGRTSYADSVKGRFTISRDNAKNTVYLQMNSLKPEDTAVYYCNASNYIFLINDPDAAPWLYDYWGQGTQVTVSS | low polyreactivity
27 | QVQLVESGGGLVQAGGSLRLSCASSGRTFTKYAMGWYRHPPGKESELVAAISRSGGSTYYADSVKGRFTISRDNAKNTVYLQMNSLKPEDTAVYYWAARGQYRYSFGDYSWGQGTQVTVSS | high polyreactivity
28 | QVQLVESGGGLVQAGGSLRLSCAASGSIFYVYAMGWYRQAPGKERELVAAISSSAGSTYYADSVKGRFTISRDNAKNTVYLQMNSLKPEDTAVYYCAAKVRYSLRKYYYWGQGTQVTVSS | high polyreactivity
29 | QVQLVESGGGLVQAGGSLRLSCAPSGRTFGYNAMGWYRQAPGKESELVAGISSSDASTYYADSVKGRFTISRDNAKNTVYLQMNSLKPEDTAVYYCAATFGFFYYQYDYWGQGTQVTVSS | low polyreactivity
30 | QVQLVESGGGLVQAGGSLRLSCAASGSTFYVNTMGGSRQAPGKERELVAAISGSGGSTYYADSVKGRFTISRDNAKNTVYLQMNCLKPEETAVYYCAAYGWRLWYRFNYWGQGTQVTVSS | high polyreactivity
31 | QVQLVESGGGLVQAGGSLRLSCAASGFTLRAYAMGWYRQAPGKERELVAAITQRGTGTYYADSVKGRFTISRDNAKKTVFLQMNSLKPEDTAVYYCAAEAPRWSNYYYWGQGTQVSVSS | high polyreactivity
32 | QVQLVESGGGLVQAGGSLRLSCAASGRTFVYNTMGWYRQAPGKERELVASISSTGGNTYYSDSVKGRFTISRDNAKNTVYLQMNSLKPEDTAVYYCAAGAWTRGQYYYWGQRTQVTVSS | high polyreactivity
33 | QVQLVESGGGLVQAGGSLRLSCAASGLISWLYVMGWYRQAPGKERELVAAIRYSGGRTYYADSVKGRFTISRDNAKNTVYLQMNSLKPEDTAVYYCAAEEQVVKAHGDYWGQGTQVTVSS | low polyreactivity
34 | QVQLVESGGGLVQAGGSLRLSCAASGYTFVNYAMGWYRQAPGKEREFVAAISRSGGSTYYADSVKGRFTISRDNAKNTVYLQMNSLKPEDTAVYYCALRGYPPYNYYYWGQGTQVTVSS | high polyreactivity
35 | QVQLVESGGGLVQAGGSLRLSCAASGRILYYYAMGWYRQAPGKERELVAAINSSGGSTYYADSVKGRFTISRDNAKNTVYLQMNSLKPEDTAVYYCAALRGNVLWYPPSYFRYDYWGQGTQVTVSS | high polyreactivity
36 | QVQLVESGGGLVQAGGSLRLSCAASGRTFIKYAMGWYRPAPGKERELVAAITHRGTNTYYADSVKGRFTISRDNAKYTVYLQMNSLKPEDTAVYYCAAAAPSYPSYDYWGQGTQVTVSS | low polyreactivity
37 | QVQLVESGGGLVQAGGSLRLSCAASGSIFPGNTMGWYRQAPGKERELVAGIDKNGGRTYYADSVKGRFTISRDNAKNTVYLQMNSLKPEDTAVYYCAADTWVFRRAFWTKYEYWGQGTQVTVSS | low polyreactivity
38 | QDQIVESGGGLVQAGGSLRISCAPSGSILGYYGMGWYRQAPGKERELVAAISSSGNTNYADSVKGRFTISRDNAKNTVYFQMNSLKPDDTAVYYCAASFQYVAYFLYVYWGQGTQVTVSS | low polyreactivity
39 | QVQLVESGGGLVQAGGSLRLSSAASGSILWQYAMGWYRQAPGKERELVAAITYSGGSTHYADSVKGRFTISRDNAKNTVYLQMNSLKPEDTAVYYCAAGYWSRYAALRYDHWGQGTQVTVSS | low polyreactivity
40 | QVQIVESGGGLVQAGGSLRLSCAASGFTFALYAMGWYRQEPGKEREWVAANTRSGRTKYADSVKGRFTISRDNAKNTVYLQMNSLKPEDTAVYYCAADFRYYVTTRFNYWGQGTQVTVSS | high polyreactivity
41 | QVQLVESGGGLVQAGGSLRLSCAASGGIFDIYAMGWYRQAPGKERELVAAIRGSGGRTYYADSVKGRFTISRDNAKNTVYLQMNSLKPEDTAVYYCAARPSIVTGLRYGYWGQGTQVTVSS | high polyreactivity
42 | QVQLVESGGGLVQAGGSLRLSCAASGSIFTYYVMGWYRQAPGKERELVAGITGGGSTNYADSVKGRFTISRDNAKNTVYLQMNSLKPEDTAVYYCNAYEYLSAGYDYWGQGTQVTVSS | low polyreactivity
43 | QVQLVESGGGLVQAGGSLRLSCAASGRTVYANAMGWYRQAPGKERELVAAISTGGDGTYYADSVKGRFTISRDNAKNPVYLQMNSQKPEDTAVYYCAVRHRASGMLYDYWGQGTQVTVSS | low polyreactivity
